{"source": "paper PMC5193325", "about": "“Cytochrome c Negatively Regulates NLRP3 Inflammasomes” (PLoS ONE, 2016)", "binders": {"B1": {"name": "cytochrome c, endogenous (natural protein)", "chain": "not shown", "notes": "cytochrome c, endogenous in PMA-differentiated, LPS-primed THP-1 cells; source: endogenous, lysate or cytosolic fraction of LPS-primed THP-1 macrophage cells"}}, "biological_target": "T1, NLRP3 (NLR family, pyrin domain containing 3), endogenous (human (endogenous in THP-1), UniProt Q96P20 1-1036)", "T1 construct": "NLRP3, endogenous in PMA-differentiated, LPS-primed THP-1 cells; also called NLPR3; source: endogenous, lysate or cytosolic fraction of LPS-primed THP-1 macrophage cells", "T1 sequence (Q96P20 whole entry, the tested form may be a part)": "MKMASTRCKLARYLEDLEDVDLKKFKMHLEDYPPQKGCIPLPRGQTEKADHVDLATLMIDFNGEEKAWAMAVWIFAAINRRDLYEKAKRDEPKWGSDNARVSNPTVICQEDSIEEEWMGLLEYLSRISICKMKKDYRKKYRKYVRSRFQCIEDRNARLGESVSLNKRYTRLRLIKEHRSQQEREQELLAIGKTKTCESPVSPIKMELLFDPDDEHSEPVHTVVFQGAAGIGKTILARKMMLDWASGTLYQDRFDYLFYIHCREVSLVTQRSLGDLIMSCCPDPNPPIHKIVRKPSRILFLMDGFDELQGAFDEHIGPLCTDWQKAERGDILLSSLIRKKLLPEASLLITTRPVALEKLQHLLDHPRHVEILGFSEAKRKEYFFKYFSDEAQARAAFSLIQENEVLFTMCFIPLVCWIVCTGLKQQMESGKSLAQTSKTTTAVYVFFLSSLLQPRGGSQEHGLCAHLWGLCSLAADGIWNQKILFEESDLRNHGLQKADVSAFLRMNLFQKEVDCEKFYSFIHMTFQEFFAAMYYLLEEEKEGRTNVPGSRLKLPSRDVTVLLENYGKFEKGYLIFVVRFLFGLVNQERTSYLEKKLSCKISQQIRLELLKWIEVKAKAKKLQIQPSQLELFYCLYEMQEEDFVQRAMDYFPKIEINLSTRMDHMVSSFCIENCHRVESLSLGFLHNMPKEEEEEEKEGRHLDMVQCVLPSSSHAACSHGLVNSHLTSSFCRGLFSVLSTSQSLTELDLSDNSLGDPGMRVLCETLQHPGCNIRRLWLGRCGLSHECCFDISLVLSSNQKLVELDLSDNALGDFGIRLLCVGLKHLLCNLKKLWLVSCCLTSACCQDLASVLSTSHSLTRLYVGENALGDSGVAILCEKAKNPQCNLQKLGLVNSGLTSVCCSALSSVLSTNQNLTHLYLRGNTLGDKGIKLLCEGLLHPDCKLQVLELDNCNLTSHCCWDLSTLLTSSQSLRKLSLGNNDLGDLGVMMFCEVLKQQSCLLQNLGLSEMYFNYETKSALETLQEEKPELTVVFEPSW", "experiment": "co-IP; NLRP3 immunoprecipitated from lysates of LPS-primed THP-1 macrophage cells, stimulated with ATP (5 mM, 1 h) or not; immunoblot for cytochrome c; lysis buffer 20 mM HEPES pH 7.4, 0.5% Triton X-100, 0.5% CHAPS, 10% glycerol; 4°C", "settings": "partners not purified", "data": [{"binder": "B1", "values": [{"measurement": "fold more cytochrome c co-precipitated with NLRP3 after ATP against no ATP", "value": "~3", "unit": "fold"}]}]}
